This data set deals with the molecule itself. Kind of data set: cryo-EM structure.

This note sets out measurements from paper PMC9489475 (Nature structural & molecular biology, 2022).

What is called stoichiometry N is a count of units in the complex or per binding partner.

B1: band 3 (native, full-length, from human erythrocyte membrane) (natural protein, human (endogenous in red blood cells), UniProt P02730 1-911, looked up)
chain: MEELQDDYEDMMEENLEQEEYEDPDIPESQMEEPAAHDTEATATDYHTTSHPGTHKVYVELQELVMDEKNQELRWMEAARWVQLEENLGENGAWGRPHLSHLTFWSLLELRRVFTKGTVLLDLQETSLAGVANQLLDRFIFEDQIRPQDREELLRALLLKHSHAGELEALGGVKPAVLTRSGDPSQPLLPQHSSLETQLFCEQGDGGTEGHSPSGILEKIPPDSEATLVLVGRADFLEQPVLGFVRLQEAAELEAVELPVPIRFLFVLLGPEAPHIDYTQLGRAAATLMSERVFRIDAYMAQSRGELLHSLEGFLDCSLVLPPTDAPSEQALLSLVPVQRELLRRRYQSSPAKPDSSFYKGLDLNGGPDDPLQQTGQLFGGLVRDIRRRYPYYLSDITDAFSPQVLAAVIFIYFAALSPAITFGGLLGEKTRNQMGVSELLISTAVQGILFALLGAQPLLVVGFSGPLLVFEEAFFSFCETNGLEYIVGRVWIGFWLILLVVLVVAFEGSFLVRFISRYTQEIFSFLISLIFIYETFSKLIKIFQDHPLQKTYNYNVLMVPKPQGPLPNTALLSLVLMAGTFFFAMMLRKFKNSSYFPGKLRRVIGDFGVPISILIMVLVDFFIQDTYTQKLSVPDGFKVSNSSARGWVIHPLGLRSEFPIWMMFASALPALLVFILIFLESQITTLIVSKPERKMVKGSGFHLDLLLVVGMGGVAALFGMPWLSATTVRSVTHANALTVMGKASTPGAAAQIQEVKEQRISGLLVAVLVGLSILMEPILSRIPLAVLFGIFLYMGVTSLSGIQLFDRILLLFKPPKYHPDVPYVKRVKTWRMHLFTGIQIICLAVLWVVKSTPASLALPFVLILTVPLRRVLLPLIFRNVELQCLDADDAKATFDEEEGRDEYDEVAMPV
modifications: N-glycan site N642 (N-acetylglucosamine modelled close to N642)
Consider B1, for which the “stoichiometry N” value worked out at 2.
